From publication doi:10.1101/2021.02.05.429362

How the values were obtained:
[1] = molecular target: GFP-USP10(1-28) (UniProt Q14694); assay: ITC; conditions: 25°C, 150 mM NaCl, 10 mM MgCl2
[2] = molecular target: GFP-Caprin-1(356-386) (UniProt Q14444); assay: ITC; conditions: 25°C, 150 mM NaCl, 10 mM MgCl2

Substance: G3BP1 NTF2-like domain (G3BP1-NTF2)
- KD ([1]; pH 5.6): 0.5 μM (0.3 / 0.7)
- KD ([1]; pH 7.4): 1.5 ± 0.5 µM
- KD ([2]; pH 5.6): 1.4 μM (1.1 / 1.7)
- KD ([2]; pH 7.4): 4 ± 2 µM
